Data published in patent US20030096367A1 (WASHINGTON UNIVERSITY, published 2003).

Experiments:
[1] = target: T1, human Bcl-2 mutant mI-3 (alanine for the glycine in the WGR sequence of domain I) (human, UniProt P10415 1-239); assay: immunoprecipitation of radiolabeled FL5.12 and 2B4 stable transfectants (FIG. 18)
T1 construct: also called mI 3-4; mI3-4
Method: (§1) Prior to metabolic labeling, cells were washed once in prewarmed, serum-free, methionine-free Dulbecco's medium. Cells were resuspended at 3-5×10⁶ cells/ml in methionine-free Dulbecco's medium supplemented with 10% dialyzed FCS and either 5% complete medium or 5% WEHI 3B supernatant. Metabolic labeling was performed with 40 μCi/ml of ³⁵S)methionine, (³⁵S)cysteine for 9-12 hours before lysis. All steps of the immunoprecipitation were carried out on ice or in the cold room. Cells were washed twice with cold phosphate-buffered saline and lysed in an NP-40 isotonic lysis buffer with freshly added protease inhibitors (142.5 mM KCl, 5 mM MgCl₂, 10 mM HEPES pH:7.2, 1 mM EGTA, 0.2% NP-40, 0.2 mM phenylmethylsulfonyl fluoride, 0.1% Aprotinin, 0.7 μg/ml Pepstatin and 1 μg/ml Leupeptin) by nutation for 30′. Nuclei and unlysed cellular debris were removed by centrifugation at […] for 10′. Lysates were precleared with 10% v/v Protein A-Sepharose (Prot.A-S) for 30′ which was removed by centrifugation at 400×g for 2′. In experiments, the lysates were also mixed with 10× excess cold cells lysates for 15′ prior to the addition of the antibody. Specific antibodies were added for 90′ and immunoprecipitates were captured with 10% v/v Prot.A-S for 60′. […]

[2] = target: T2, human Bcl-2 mutant mI-4 (glutamic acid for the glycine in the WGR sequence of domain I) (human, UniProt P10415 1-239); assay: as above
T2 construct: also called mI 4-7; mI4-7
Method: as §1

wild type human Bcl-2 = target: T3, wild type human Bcl-2 (human, UniProt P10415 1-239); assay: immunoprecipitation of human Bcl-2 from double transfected FL5.12 cells, Western blot with anti-mouse Bcl-2 antibody (FIG. 21)
T3 construct: also called hBcl-2; human Bcl-2 wild-type
Source text: (§2) Immunoprecipitates were washed (unless indicated otherwise) once in lysis buffer followed by a wash in lysis buffer without NP-40. Immunoprecipitates were solubilized with SDS-PAGE sample buffer and electrophoresed through 12.5% SDS-polyacrylamide gels. Gels containing (³⁵ S)methionine labeled proteins were fixed with 10% glacial acetic acid and 30% methanol overnight, enhanced by impregnating with a commercial fluorography enhancing solution (Enhance by DuPont) for 60′, and […] in water for 30′. Gels were then dried and autoradiography performed at−70° C.
(§3) For immunoblots, proteins were electrotransferred overnight at 4° C. on nitrocellulose membranes. Filters were blocked for 2 hours with phosphate-buffered saline containing 3% non-fat milk. All additional immunostaining steps were performed in phosphate-buffered saline with 0.05% Tween-20 (PBS-Tween) at room temperature. Filters were incubated with primary antibody for 2 hours. Species specific biotinylated secondary antibodies (1:300) were also reacted for 2 hours. Immunoblots were reacted with horseradish-peroxidase-Streptavidin (1:1000) for 1 hour. Filters were washed in PBX-Tween 4 times for 5′ between each step and were developed with […] (BioRad) enhanced with nickel chloride (0.03%).
(§4) In FIG. 21 cells are created that bear two expression constructs. The Dα15 cell line is an FL5.12 bearing human Bcl-2 wild-type and mouse Bcl-2 wild-type vector. The DN2 bears a control Neomycin resistant expression vector and mouse Bcl-2 wild-type vector. The clone DSM4-5 contains mutant Bcl-2 of domain I and a mouse Bcl-2 wild-type whereas the DSM-4 contains another Bcl-2 mutant of human origin with mouse Bcl-2 wild-type. […] In FIG. 21B we see a primary immunoprecipitation of either wild-type human Bcl-2 or the mutated human Bcl-2 in which the 3-4 and 4-7 mutants have no associated Bax. Those immunoprecipitations are then developed by Western blot analysis with an anti-mouse Bcl-2 antibody. Both the wild-type human Bcl-2 as well as the two mutants mI 3-4 and mI 4-7 both associate with the wild-type mouse Bcl-2.

[3] = target: T1, human Bcl-2 mutant mI-3 (alanine for …); assay: as above
Source text: as §2, §3, §4

[4] = target: T2, human Bcl-2 mutant mI-4 (glutamic acid …); assay: as above
Source text: as §2, §3, §4

Row | binding result [1] | binding result [2] | binding result (wild type human Bcl-2) | binding result [3] | binding result [4] | Binder
1 | no binding | no binding | – | – | – | murine Bax (endogenous p21 of FL5.12 cells, Bax alpha) (other, also called murine p21 protein; mouse p21) MDGSGEQLGSGGPTSSEQIMKTGAFLLQGFIQDRAGRMAGETPELTLEQPPQDASTKKLSECLRRIGDELDSNMELQRMIADVDRDSPREVFFRVAADMFADGNFNTGRVVALFYFASKLVLKALCTKVPELIRTIMGWTLDFLRERLLGWIQDQGGWEGLLSYFGTPTWQTVTIFVAGVLTASLTIWKKMG
2 | – | – | binds | binds | binds | murine Bcl-2 (wild type) (other, UniProt P10417 1-236, looked up, also called endogenous murine Bcl-2; mouse Bcl-2 wild-type) MAQAGRTGYDNREIVMKYIHYKLSQRGYEWDAGDADAAPLGAAPTPGIFSFQPESNPMPAVHRDMAARTSPLRPLVATAGPALSPVPPVVHLTLRRAGDDFSRRYRRDFAEMSSQLHLTPFTARGRFATVVEELFRDGVNWGRIVAFFEFGGVMCVESVNREMSPLVDNIALWMTEYLNRHLHTWIQDNGGWDAFVELYGPSMRPLFDFSWLSLKTLLSLALVGACITLGAYLGHK
